Test results reported in paper PMC4643373.

Target: FMRP isoform 1 (FMRP ISO1) (human (title of cited purification …, UniProt Q06787 1-632))
Assay: fluorescence spectroscopy

GGGUACGGGAGGGUAAGGCUGUGGGUCGCGUG (structured_RNA, 2-aminopurine replacing A5) [NR2B 2AP mRNA]
Kd: 370 nM
